The text below walks through data of patent US20050250090A1, “Assay systems and methods for detecting molecules that interact with SK2 channels” (priority 2003, published 2005).

For this experiment, the target named is human SK2 isoform hSK2A+ (small-conductance calcium-activated potassium channel protein), stably exp (human), Q9H2S1. Put plainly: cell-based or functional assay.
Chain of human SK2 isoform hSK2A+ (small-conductance calcium-activated potassium channel protein), stably exp (human), Q9H2S1 (Q9H2S1 other isoform, or with tags, fused parts or gaps): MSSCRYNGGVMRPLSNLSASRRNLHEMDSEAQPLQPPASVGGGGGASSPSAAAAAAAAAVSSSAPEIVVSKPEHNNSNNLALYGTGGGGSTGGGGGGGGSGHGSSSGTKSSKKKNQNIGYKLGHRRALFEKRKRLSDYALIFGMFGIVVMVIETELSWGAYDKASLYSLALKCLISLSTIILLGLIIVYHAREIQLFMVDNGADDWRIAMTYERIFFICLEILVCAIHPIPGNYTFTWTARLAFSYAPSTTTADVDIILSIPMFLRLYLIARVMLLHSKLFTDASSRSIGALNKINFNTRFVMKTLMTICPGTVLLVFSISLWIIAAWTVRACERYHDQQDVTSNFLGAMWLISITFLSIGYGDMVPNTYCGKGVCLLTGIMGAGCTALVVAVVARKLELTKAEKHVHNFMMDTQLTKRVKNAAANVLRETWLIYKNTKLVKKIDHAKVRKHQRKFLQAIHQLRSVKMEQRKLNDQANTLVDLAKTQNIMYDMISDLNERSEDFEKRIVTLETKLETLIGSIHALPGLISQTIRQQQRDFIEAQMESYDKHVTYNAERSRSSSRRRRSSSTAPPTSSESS

Turning to AFCNLRMCQLSCRSLGLLGKCIGDKCECVKH (modifications not checked) [scyllatoxin, P16341 1-31], the magnitude of the ATP/Tg induced decrease in fluorescence; concentration printed as 'tested at' (FIG. 9 concentration series) was found to be 1.1 nM.
